In patent US20180371492A1 (WAYNE STATE UNIVERSITY, published 2018):

Target: T1, purified androgen receptor (AR) (human, UniProt P10275 1-920, limits assumed)
T1 construct: also called purified AR
T1 sequence: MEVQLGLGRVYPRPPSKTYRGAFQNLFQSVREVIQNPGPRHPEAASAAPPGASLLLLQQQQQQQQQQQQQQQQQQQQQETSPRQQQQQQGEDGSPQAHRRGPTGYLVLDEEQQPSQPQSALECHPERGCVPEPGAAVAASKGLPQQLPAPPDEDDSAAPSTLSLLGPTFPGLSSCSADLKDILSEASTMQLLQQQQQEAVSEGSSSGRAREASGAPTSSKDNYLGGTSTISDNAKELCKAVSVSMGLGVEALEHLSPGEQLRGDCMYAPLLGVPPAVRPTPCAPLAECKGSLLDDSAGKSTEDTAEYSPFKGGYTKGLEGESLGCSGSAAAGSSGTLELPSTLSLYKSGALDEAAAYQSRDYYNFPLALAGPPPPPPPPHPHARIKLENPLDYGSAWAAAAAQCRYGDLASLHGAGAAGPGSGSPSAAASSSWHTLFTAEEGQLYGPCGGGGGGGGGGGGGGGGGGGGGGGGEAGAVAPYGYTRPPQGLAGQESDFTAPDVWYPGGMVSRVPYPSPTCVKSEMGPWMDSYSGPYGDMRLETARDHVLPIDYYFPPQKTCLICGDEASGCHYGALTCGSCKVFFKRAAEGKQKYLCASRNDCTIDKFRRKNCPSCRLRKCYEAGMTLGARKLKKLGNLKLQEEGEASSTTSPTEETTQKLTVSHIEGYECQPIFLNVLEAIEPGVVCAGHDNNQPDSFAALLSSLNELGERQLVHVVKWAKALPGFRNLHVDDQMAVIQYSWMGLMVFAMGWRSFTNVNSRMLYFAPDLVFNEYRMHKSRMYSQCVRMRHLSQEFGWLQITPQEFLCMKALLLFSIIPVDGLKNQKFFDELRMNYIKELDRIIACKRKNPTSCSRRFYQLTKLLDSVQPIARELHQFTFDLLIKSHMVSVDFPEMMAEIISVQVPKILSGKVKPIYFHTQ
Experiment: SPR, purified proteins

B1: ELK1 (ETS transcription factor (ELK1), transcript variant 1) (other)
chain: MDPSVTLWQFLLQLLREQGNGHIISWTSRDGGEFKLVDAEEVARLWGLRKNKTNMNYDKLSRALRYYYDKNIIRKVSGQKFVYKFVSYPEVAGCSTEDCPPQPEVSVTSTMPNVAPAAIHAAPGDTVSGKPGTPKGAGMAGPGGLARSSRNEYMRSGLYSTFTIQSLQPQPPPHPRPAVVLPNAAPAGAAAPPSGSRSTSPSPLEACLEAEEAGLPLQVILTPPEAPNLKSEELNVEPGLGRALPPEVKVEGPKEELEVAGERGFVPETTKAEPEVPPQEGVPARLPAVVMDTAGQAGGHAASSPEISQPQKGRKPRDLELPLSPSLLGGPGPERTPGSGSGSGLQAPGPALTPSLLPTHTLTPVLLTPSSLPPSIHFWSTLSPIAPRSPAKLSFQFPSSGSAQVHIPSISVDGLSTPVVLSPGPQKP
notes: also called purified ELK1; ELK1 polypeptide
  Kd: 19 nM
